In paper PMC7468457:

What was measured:
[1] = molecular target: AT1R-Rluc (AngII type 1 receptor fused to Renilla luciferase) (human) (UniProt P30556)
[2] = molecular target: AT1R-Rluc (AngII type 1 receptor fused to Renilla luciferase) (human) (UniProt P30556); remark: listed apart in the source
[3] = molecular target: AT1R-Rluc (AngII type 1 receptor fused to Renilla luciferase) (human) (UniProt P30556); remark: listed apart in the source
[4] = molecular target: AT1R-Rluc (AngII type 1 receptor fused to Renilla luciferase) (human) (UniProt P30556); remark: listed apart in the source
[5] = molecular target: AT1R-Rluc (AngII type 1 receptor fused to Renilla luciferase) (human) (UniProt P30556); remark: listed apart in the source
[6] = molecular target: AT1R-Rluc (AngII type 1 receptor fused to Renilla luciferase) (human) (UniProt P30556); remark: listed apart in the source

UniProt P30556, sequence (P30556 whole entry, the tested form may be a part): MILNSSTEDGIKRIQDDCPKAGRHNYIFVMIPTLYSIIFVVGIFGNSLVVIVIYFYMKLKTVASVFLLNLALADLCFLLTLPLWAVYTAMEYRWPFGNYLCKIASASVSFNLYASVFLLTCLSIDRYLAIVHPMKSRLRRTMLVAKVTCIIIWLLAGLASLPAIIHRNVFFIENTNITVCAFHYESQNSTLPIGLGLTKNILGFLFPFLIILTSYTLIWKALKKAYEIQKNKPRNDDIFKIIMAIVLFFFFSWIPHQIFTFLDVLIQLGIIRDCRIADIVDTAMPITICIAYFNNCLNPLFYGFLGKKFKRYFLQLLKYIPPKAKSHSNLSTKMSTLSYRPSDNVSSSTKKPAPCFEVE

B1: PAR1 (untagged protease-activated receptor 1) (receptor)
chain: SFLLRNPNDKYEPFWEDEEKNESGLTEYRLVSINKSSPLQKQLPAFISEDASGYLTSSWLTLFVPSVYTGVFVVSLPLNIMAIVVFILKMKVKKPAVVYMLHLATADVLFVSVLPFKISYYFSGSDWQFGSELCRFVTAAFYCNMYASILLMTVISIDRFLAVVYPMQSLSWRTLGRASFTCLAIWALAIAGVVPLLLKEQTIQVPGLNITTCHDVLNETLLEGYYAYYFSAFSAVFFFVPLIISTVCYVSIIRCLSSSAVANRSKKSRALFLSAAVFCIFIICFGPTNVLLIAHYSFLSHTSTTEAAYFAYLLCVCVSSISCCIDPLIYYYASSECQRYVYSILCCKESSDPSSYNSSGQLMASKMDTCSSNLNNSIYKKLLT
With B1 the BRET increase between AT1R-Rluc and Venus-Gαq by thrombin 1 U/ml with PAR1 overexpression, dose-response to AngII (Figure 1D) (% of AngII response) [1] was 70 to 75, the BRET increase between AT1R-Rluc and yPET-β-arrestin 2 by thrombin 1 U/ml with PAR1 overexpression (Figure 1F) (% of AngII response) [1] was 25 and the sequential real-time BRET between AT1R-Rluc and yPET-β-arrestin 2, PAR1 overexpressed, vehicle then thrombin 1 U/ml (% of AngII response) [2] was 50. It also gave an Emax of thrombin dose-response, BRET between AT1R-Rluc and Venus-Gαq, PAR1 overexpressed, thrombin alone; 10 nM AngII alone taken as 100% [3] of 211%, an Emax of thrombin dose-response, BRET between AT1R-Rluc and Venus-Gαq, PAR1 overexpressed, with 10 nM AngII [3] of 342% and an Emax of thrombin dose-response, BRET between AT1R-Rluc and yPET-β-arrestin 2, PAR1 overexpressed, thrombin alone; 10 nM AngII alone taken as 100% [3] of 102%. It also gave an Emax of thrombin dose-response, BRET between AT1R-Rluc and yPET-β-arrestin 2, PAR1 overexpressed, with 10 nM AngII [3] of 299%, an AT1R endosomal trafficking (BRET between AT1R-Rluc and Venus-Rab5), PAR1 overexpressed and co-activated [4] of 45% and an AT1R endosomal trafficking (BRET between AT1R-Rluc and Venus-Rab7), PAR1 overexpressed and co-activated [4] of 41%. The real-time BRET between AT1R-Rluc and Venus-Gαq, PAR1 overexpressed, AngII 10 nM and thrombin 1 U/ml together (% of AngII response) [5] was 207, the real-time BRET between AT1R-Rluc and Venus-Gαq, PAR1 overexpressed, thrombin 1 U/ml alone (% of AngII response) [5] was 79 and the real-time BRET between AT1R-Rluc and yPET-β-arrestin 2, PAR1 overexpressed, AngII 10 nM and thrombin 1 U/ml together (% of AngII response) [5] was 218. The real-time BRET between AT1R-Rluc and yPET-β-arrestin 2, PAR1 overexpressed, thrombin 1 U/ml alone (% of AngII response) [5] was 44 and the IP1 production in HEK293 cells coexpressing AT1R-Rluc and PAR1, AngII 10 nM and thrombin 1 U/ml together [6] was 160%.
